± gives the uncertainty stated by the source.
Assay: protein stability index of a GFP-peptide fusion (yeast GPS) (PSI 1-4); higher = more stable; sorted into four equal gates, so the index is relative within each strain
Method in brief: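 For each peptide, the protein stability index sums the read frequency in every gate after multiplying it by the gate number. Read frequencies came from plasmids that were PCR-amplified from each gate and Illumina-sequenced, with reads assigned to strains by barcodes. The gates were four equal bins of GFP/Cherry fluorescence ratio applied to mid-log yeast in leucine-free medium carrying a pooled library of tiled 17-residue yeast protein peptides fused downstream of GFP on a Cherry-expressing plasmid.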

Row | Sequence | protein stability index (doa10∆) | protein stability index (pdr5∆) | protein stability index (san1∆) | protein stability index (ubr1∆)
1 | GRRLSMLASQANGGSTI [DSN1] | 2.1 ± 0.057 | 2.7 ± 0.074 | 2.42 ± 0.071 | 2.29 ± 0.047
2 | QNENLPSDKSDSMVDKE [SSN2] | 3.07 ± 0.13 | 2.64 ± 0.096 | 2.73 ± 0.091 | 2.57 ± 0.077
3 | IEILVKDNECSSFEENN [RRI2] | 2.86 ± 0.13 | 3.02 ± 0.13 | 2.89 ± 0.12 | 3.33 ± 0.12
4 | VRIPPDQFHRDTISAIT [RPC25] | 1.91 ± 0.042 | 2.43 ± 0.048 | 2.02 ± 0.064 | 1.8 ± 0.032
5 | ICLYSSFQKNSLHNTEK [AAR2] | 1.99 ± 0.065 | 2.24 ± 0.058 | 2.57 ± 0.064 | 2.78 ± 0.057
6 | YKAISAQADKQDISSST [FAS2] | 2.91 ± 0.073 | 2.87 ± 0.058 | 2.3 ± 0.062 | 2.83 ± 0.045
7 | VPRLFDLVKPKNPKFSN [SMC4] | 2.54 ± 0.052 | 2.62 ± 0.061 | 2.45 ± 0.091 | 2.81 ± 0.052
8 | TNTFEGSGNNNEIESRQ [SNU114] | – | 3.48 ± 0.17 | 3.25 ± 0.11 | –
9 | FERPAVKEEKEDMETQA [RPC53] | 2.87 ± 0.24 | 2.71 ± 0.23 | 3.2 ± 0.084 | 3.46 ± 0.16
10 | DSIGSTRVEGSGGGDSE [RPT6] | 2.6 ± 0.1 | 2.65 ± 0.11 | 3.1 ± 0.065 | 2.97 ± 0.064
11 | ECQVIAAEGLCKLFLAD [YCG1] | 3.29 ± 0.066 | 3.29 ± 0.067 | 3.11 ± 0.047 | 3.25 ± 0.036
12 | FEGTDDNEEASVKLDLQ [BRN1] | 3.2 ± 0.17 | 3.65 ± 0.11 | 3.49 ± 0.096 | 3.35 ± 0.098
13 | ENSYLRGLTPQEFFFHA [RPO21] | 2.49 ± 0.046 | 2.64 ± 0.046 | 2.45 ± 0.062 | 2.64 ± 0.047
14 | KTWLRNQEDEKNLQRES [RTT102] | – | – | – | 3.23 ± 0.19
15 | QSLDTIGGSDAAFEKRY [RPO21] | 3.25 ± 0.095 | 3.38 ± 0.074 | 3.37 ± 0.049 | 3.25 ± 0.06
16 | ALRDVKNNNNANNNGSN [GAL11] | 3.33 ± 0.095 | 2.95 ± 0.14 | 3.13 ± 0.12 | 3.41 ± 0.11
17 | KPNDLVGVNKDSYLILD [RPT5] | 3.05 ± 0.17 | 3.4 ± 0.19 | 3.35 ± 0.082 | 3.49 ± 0.14
18 | VLHVSAKGKSGVQTAYI [RRP40] | 2.48 ± 0.23 | – | – | 2.91 ± 0.24
19 | DIFGDSELFDEWFEQNN [ISW2] | 2.36 ± 0.069 | 2.49 ± 0.072 | 1.31 ± 0.15 | 1.63 ± 0.056
20 | HIHDLEKFSPKSFISKL [SRP54] | 1.81 ± 0.044 | 2.12 ± 0.042 | 2.14 ± 0.064 | 2.36 ± 0.028
21 | NYVAVGDVSNLPYLDEL [QCR2] | 3.13 ± 0.087 | 3.19 ± 0.096 | 2.97 ± 0.099 | 3.18 ± 0.051
22 | QPKPLFSFGKSDAAKEP [YOR098C/NUP1] | 2.52 ± 0.07 | 2.6 ± 0.039 | 2.44 ± 0.073 | 2.72 ± 0.085
23 | KAIELLEKALQGATNEG [SRP72] | – | 1.14 ± 0.18 | – | 1.18 ± 0.22
24 | LNDTTEKSKALESEIAS [SMC2] | 3.53 ± 0.19 | 3.34 ± 0.14 | 3.43 ± 0.086 | 3.18 ± 0.086
25 | GSTTIEKKNDENSTSNS [YLR335W/NUP2] | 3.1 ± 0.085 | 3.18 ± 0.097 | 3.18 ± 0.06 | 3.17 ± 0.044
26 | IKPKIALQDKEITSVLS [SNF12] | 2.31 ± 0.082 | 2.39 ± 0.1 | 2.36 ± 0.16 | 2.28 ± 0.093

Row | Sequence | protein stability index (doa10∆) | protein stability index (pdr5∆) | protein stability index (san1∆) | protein stability index (ubr1∆)
27 | YIYLSHETLARSSEEIN [RPN3] | 3.15 ± 0.26 | – | – | 3.15 ± 0.18
28 | TIEQSPRMIELMEFLCV [ECM29] | – | – | 3.11 ± 0.14 | 3.25 ± 0.13
29 | NSNTNLNSLSPQAILAK [SWI1] | 2.28 ± 0.046 | 1.93 ± 0.033 | 1.92 ± 0.054 | 2.02 ± 0.03
30 | SYKRIYGEYPPTKLLVS [PRE8] | 2.87 ± 0.083 | 3.03 ± 0.085 | 2.75 ± 0.1 | 3.09 ± 0.06
31 | TSPTMPDYYVSILSFVD [RPT2] | 2.2 ± 0.048 | 2.31 ± 0.05 | 2.27 ± 0.042 | 2.15 ± 0.041
32 | PISEKGLTLSTTNLDID [RPP1] | 2.82 ± 0.052 | 2.92 ± 0.041 | 3.05 ± 0.034 | 2.9 ± 0.049
33 | LALINYGRQELADDLIT [RPN2] | – | 1.82 ± 0.26 | 1.57 ± 0.28 | 1.49 ± 0.14
34 | IVSEDHIILDTISECNL [MED1] | 2.87 ± 0.093 | 3.19 ± 0.081 | 3.2 ± 0.077 | 2.83 ± 0.12
35 | TDLTNNSTDGAKITEIG [YIL149C/MLP2] | 3.35 ± 0.087 | 3.17 ± 0.08 | 3.07 ± 0.058 | 3.28 ± 0.055
36 | LHNFESVAPTKQREIVK [NUT1] | 2.71 ± 0.084 | 2.55 ± 0.065 | 2.7 ± 0.053 | 2.6 ± 0.044
37 | EFIAAVNNPQEETSHLL [RPN10] | 2.33 ± 0.12 | 3 ± 0.091 | 3 ± 0.14 | 2.82 ± 0.068
38 | SKQNGIEQSITKNIPIT [SSN8] | 2.63 ± 0.082 | 2.67 ± 0.069 | 2.66 ± 0.079 | 2.84 ± 0.068
39 | RSDGMGNVLLNATVVDS [YLR335W/NUP2] | 3.44 ± 0.15 | 3.15 ± 0.099 | 3.29 ± 0.099 | 3.15 ± 0.093
40 | SLSIKLATLHYQKKQYK [RPN6] | 1.33 ± 0.064 | 1.28 ± 0.061 | 1.34 ± 0.11 | 1.34 ± 0.079
41 | QLASQLVDLKKELAELK [RPL35A] | 3.37 ± 0.26 | 3.68 ± 0.27 | 3.21 ± 0.066 | 3.35 ± 0.078
42 | ILSINAIDYEPEYEKAM [SMC1] | 3.29 ± 0.076 | 3.1 ± 0.068 | 3.05 ± 0.049 | 3.13 ± 0.043
43 | NKENDNVPSTKFNAAPE [SNF12] | 3.38 ± 0.055 | 3.36 ± 0.068 | 3.17 ± 0.06 | 3.14 ± 0.056
44 | RGKNEIIQNAQRDAVTL [RPO21] | 3.3 ± 0.067 | 2.99 ± 0.078 | 3.23 ± 0.064 | 3.04 ± 0.066
45 | VSNPLIQRFFALHYLVP [COB] | 1.86 ± 0.054 | 1.88 ± 0.059 | 2.32 ± 0.072 | 1.2 ± 0.041
46 | ESKLIPQENDLESKMSE [SMC3] | 2.81 ± 0.065 | 3.05 ± 0.065 | 3.15 ± 0.059 | 3.01 ± 0.054
47 | AMSTVTLGVVGKSEKLS [SKI6] | 2.81 ± 0.079 | 3.19 ± 0.081 | 2.75 ± 0.099 | 2.93 ± 0.073
48 | QYMEELADDDEERFSEL [RPL5] | 1.12 ± 0.14 | 1.14 ± 0.18 | – | –
49 | DKEKEENNDDALDLDLD [MED4] | 2.92 ± 0.072 | 3.12 ± 0.095 | 2.95 ± 0.063 | 3.16 ± 0.054
50 | IRTRRAAELLDKRIVIS [DIS3] | 1.5 ± 0.11 | 1.81 ± 0.1 | 1.51 ± 0.17 | 1.84 ± 0.1
51 | PGQKMSLFSHRKHTRGD [BRN1] | 3.34 ± 0.23 | 2.95 ± 0.21 | 3.31 ± 0.15 | 3.22 ± 0.062
52 | ASSAAAGAAGAAAGGDA [RPP2B] | 2.87 ± 0.11 | 3.02 ± 0.084 | 3.21 ± 0.071 | 2.87 ± 0.095

Row | Sequence | protein stability index (doa10∆) | protein stability index (pdr5∆) | protein stability index (san1∆) | protein stability index (ubr1∆)
53 | TAILQRQLQYETLGDIL [ECM29] | 2.62 ± 0.086 | 3.31 ± 0.12 | 2.73 ± 0.098 | 3.02 ± 0.097
54 | INYLALNAANYNIDANV [ECM29] | – | 2.76 ± 0.2 | – | 2.72 ± 0.13
55 | VGQAGRPKKITGWITQS [RPN1] | 1.99 ± 0.059 | 2.27 ± 0.075 | 2.21 ± 0.12 | 2 ± 0.044
56 | LNLEQVTLNKYCSGNIY [YJL039C/NUP192] | 2.37 ± 0.044 | 2.16 ± 0.048 | 2.59 ± 0.052 | 2.39 ± 0.046
57 | DTLKLRENLHILNEVFT [RRP6] | 2.26 ± 0.092 | 2.87 ± 0.06 | 2.59 ± 0.058 | 2.4 ± 0.051
58 | TKLIGVLILLHAERDLA [SRP68] | 1.28 ± 0.078 | 2.26 ± 0.17 | 2.48 ± 0.088 | 2.78 ± 0.098
59 | FEIDDEHRIRVFFDKRI [RPS6A] | 1.88 ± 0.089 | 3.02 ± 0.12 | 2.17 ± 0.13 | 2.94 ± 0.16
60 | HRLSILSHYAKIRPWRT [RPO31] | 2.81 ± 0.068 | 2.77 ± 0.066 | 2.85 ± 0.087 | 2.84 ± 0.052
61 | SYRGVDLEKLLEMSTED [RPS15] | 2.76 ± 0.14 | 2.86 ± 0.12 | 2.27 ± 0.2 | 3.19 ± 0.083
62 | SKINSTELLDYATKLSK [MED4] | 2.79 ± 0.23 | 2.72 ± 0.12 | 2.49 ± 0.072 | 2.94 ± 0.15
63 | THTEQNNPPKPQKPVPL [SNF2] | 2.88 ± 0.08 | 3.34 ± 0.094 | 3.12 ± 0.049 | 3.15 ± 0.057
64 | LELLNQLDGFSSDDRVK [RPT5] | 3.07 ± 0.064 | 3.15 ± 0.056 | 2.96 ± 0.051 | 3.03 ± 0.046
65 | VEVKDASLVDYVQVRQP [RPS5] | 2.9 ± 0.3 | 3.41 ± 0.17 | – | 1.18 ± 0.067
66 | VTLASILTTAVGLVSPS [RPN1] | 1.98 ± 0.13 | 1.55 ± 0.081 | 2.25 ± 0.19 | 2.85 ± 0.087
67 | DTNVVLQAIDLLENPNC [DIS3] | 2.84 ± 0.07 | 2.75 ± 0.063 | 2.63 ± 0.074 | 2.73 ± 0.046
68 | KCTAEGIKVSLLGIFDD [RPC25] | 2.19 ± 0.077 | 1.69 ± 0.088 | 2.27 ± 0.099 | 2.04 ± 0.061
69 | DMVMATVKKGKPELRKK [RPL23A] | 3.49 ± 0.15 | 3.35 ± 0.18 | 3.54 ± 0.1 | 3.22 ± 0.11
70 | QSKLKDVVEYLDKVINK [RPN8] | 2.73 ± 0.094 | 2.32 ± 0.055 | 2.63 ± 0.073 | 2.55 ± 0.046
71 | LFLIIQCYKIYDLVILK [YMR129W/POM152] | 1.29 ± 0.063 | 1.2 ± 0.045 | 1.16 ± 0.085 | 1.16 ± 0.044
72 | SFAIYSSTIDAPAFHTS [SRB8] | 2.21 ± 0.055 | 2.21 ± 0.056 | 2.03 ± 0.065 | 2.25 ± 0.045
73 | LVADGVFYAELNEFFTR [RPS3] | 3.2 ± 0.12 | 3.1 ± 0.12 | 3.08 ± 0.077 | 3.28 ± 0.078
74 | SGNSANNMNVNMNLNPQ [GAL11] | 2.85 ± 0.046 | 2.87 ± 0.042 | 2.73 ± 0.033 | 2.93 ± 0.034
75 | GDPFDYKAQADTFYMNV [RPB3] | 3.4 ± 0.1 | 3.44 ± 0.1 | 3.33 ± 0.063 | 3.36 ± 0.083
76 | AELLNEWHSSLTLKEAE [PUP2] | – | 2.93 ± 0.14 | – | 3.02 ± 0.17

From the supplement of paper PMC9732359
